Legend:
[1] = molecular target: T1, Macaca mulatta CEACAM6-Xa-Fc-His (Macaca mulatta); assay: SPR, antibody captured, antigen as analyte
T1 construct: extracellular (mature form) fused to Factor Xa site, human IgG1 Fc and His tag; the entry is the whole fusion; also called TPP-1306; MM WT
Protocol: Surface plasmon resonance (SPR) experiments for quantitative binding analyses were performed either using a Biacore T100, Biacore T200 or a Biacore 4000 instrument (GE Healthcare Biacore, Inc.) equipped with Series S Sensor Chips CM5 (GE Healthcare Biacore, Inc.). Binding assays were carried out at 25° C. with assay buffer HBS-EP+(10 mM HEPES pH 7.4, 150 mM NaCl, 3 mM EDTA, 0.05% Surfactant P20). Antibodies were captured with an anti-hIgG capture antibody covalently immobilized to the chip surface via amine coupling chemistry. Reagents for amine coupling (1-ethyl-3-(3-dimethylaminopropyl) carbodiimide hydrochloride (EDC), N-hydroxysuccinimide (NHS), ethanolamine-HCl pH 8.5) were used from the Amine Coupling Kit (GE Healthcare, product code BR-1000-50). Anti-hIgG, anti-mIgG capture antibodies and immobilization buffer (10 mM sodium acetate pH 5.0) were used from the Human Antibody Capture Kit (GE Healthcare, BR-1008-39) and the Mouse Antibody Capture Kit (GE Healthcare, BR-1008-38), respectively. The sensor chip surface was activated with a freshly prepared solution of 0.2 M EDC and 0.05 M NHS passed over the chip surface for 420 s at a flow rate of 10 μl/min, followed by an injection of anti-hIgG or anti-mIgG capture antibody (dissolved to 25 μg/ml in immobilization buffer) for 180 s at a flow rate of […]. Excess of activated groups were blocked with a 1 molar solution of ethanolamine injected at a flow rate of 10 μl/min for 420 s.
CEACAM antigens were used as analyte to determine KD values. Antibodies were captured for 20 s at a flow rate of 10 μl/min prior to each analyte injection.
Obtained sensorgrams were double-referenced, i.e. in-line reference cell correction followed by buffer sample subtraction.

[2] = molecular target: T2, Human CEACAM6-Domain 1-His (expressed in E. coli), wild-type (human); assay: domain mapping ELISA, antigen coated
T2 construct: entry includes the His tag; also called hDOM1
T2 chain: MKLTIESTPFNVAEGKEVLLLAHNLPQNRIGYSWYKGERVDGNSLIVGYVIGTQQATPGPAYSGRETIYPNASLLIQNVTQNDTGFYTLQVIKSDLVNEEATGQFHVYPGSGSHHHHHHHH
Protocol: (§1) For ELISA analysis, the Fc-fused domain chimeras and the single domain 1 were coated on Nunc MaxiSorb plates and blocked with SmartBlock solution. After incubation with an IgG-concentration series (1 nM-1000 nM) for 1 h, plates were washed with PBS/T. Analysis of the bound IgGs to the CEACAM6 domain constructs was achieved over detection via Anti-Human IgG (Fab specific)-Peroxidase antibody (A0293, Sigma). Fluorescence detection was performed with AmplexRed (A12222, Invitrogen) following standard protocols.

[3] = molecular target: T3, Human CEACAM6-Dom2-MacMul-Xa-Fc-His (human, Domain 2 from Macaca mulatta); assay: domain mapping ELISA, antigen coated
T3 construct: domain chimera fused to Xa-Fc-His; also called TPP-1792; DOM2 MM
Protocol: as §1

[4] = molecular target: T4, Macaca fascicularis CEACAM6, extracellular (mature form), obtained by Factor Xa cleavage of TPP-2443 (Macaca fascicularis); assay: ELISA, antigen coated
T4 construct: used biotinylated in some assays; also called APP-319; Cynomolgus CEACAM6
T4 chain: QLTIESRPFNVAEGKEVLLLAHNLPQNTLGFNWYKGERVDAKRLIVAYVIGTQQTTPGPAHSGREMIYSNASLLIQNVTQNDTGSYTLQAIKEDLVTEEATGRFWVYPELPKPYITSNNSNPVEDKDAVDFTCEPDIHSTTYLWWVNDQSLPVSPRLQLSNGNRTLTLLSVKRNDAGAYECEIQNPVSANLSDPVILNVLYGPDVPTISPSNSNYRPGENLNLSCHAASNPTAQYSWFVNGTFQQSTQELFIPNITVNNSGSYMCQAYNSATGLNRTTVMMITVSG
Protocol: (§2) ELISAs were used to characterize the binding of antibodies to various CEACAM paralogs and orthologs. Black 384-well plates were coated with […] of various CEACAM protein preparations at 2 μg/ml in coating buffer (Candor) for 1 h at 37° C. After one wash with PBS/0.05% Tween-20, wells were blocked with 100% Smart Block (Candor) for one hour at 37° C. After three washes with PBS/0.05% Tween-20, dilution series of the antibodies in PBS/0.05% Tween-20/10% Smart Block ranging from 2 μg/ml to 2 ng/ml were added and the plates were incubated for 1 h at room temperature. After three washes with PBS/0.05% Tween-20, an appropriate secondary antibody was added. For detection of proteins with a human Fc such as TPP-1173, an anti-human IgG HRP (Sigma A0170) was used at 1:10.000 dilution. For detection of proteins with a mouse Fc such as TPP-1744 an anti-mouse IgG HRP (ThermoScientific 31432) was used at 1:10.000 dilution. PBS/0.05% Tween-20/10% Smart Block was used as dilution buffer. The plates were incubated for 1 hour at room temperature. After three washes, the plates were developed with Amplex Red (Life Technologies) and fluorescence was read at an emission wavelength of 590 nm. GraphPad Prism 6.0 software was used to calculate EC₅₀ values using four-parameter non-linear curve fit. […]

[5] = molecular target: T5, human CEACAM5, extracellular (mature form), R&D Systems 4128-CM (human, UniProt P06731 35-685); assay: ELISA, antigen coated
T5 construct: used biotinylated in some assays; also called TPP-1438; hC5
T5 sequence: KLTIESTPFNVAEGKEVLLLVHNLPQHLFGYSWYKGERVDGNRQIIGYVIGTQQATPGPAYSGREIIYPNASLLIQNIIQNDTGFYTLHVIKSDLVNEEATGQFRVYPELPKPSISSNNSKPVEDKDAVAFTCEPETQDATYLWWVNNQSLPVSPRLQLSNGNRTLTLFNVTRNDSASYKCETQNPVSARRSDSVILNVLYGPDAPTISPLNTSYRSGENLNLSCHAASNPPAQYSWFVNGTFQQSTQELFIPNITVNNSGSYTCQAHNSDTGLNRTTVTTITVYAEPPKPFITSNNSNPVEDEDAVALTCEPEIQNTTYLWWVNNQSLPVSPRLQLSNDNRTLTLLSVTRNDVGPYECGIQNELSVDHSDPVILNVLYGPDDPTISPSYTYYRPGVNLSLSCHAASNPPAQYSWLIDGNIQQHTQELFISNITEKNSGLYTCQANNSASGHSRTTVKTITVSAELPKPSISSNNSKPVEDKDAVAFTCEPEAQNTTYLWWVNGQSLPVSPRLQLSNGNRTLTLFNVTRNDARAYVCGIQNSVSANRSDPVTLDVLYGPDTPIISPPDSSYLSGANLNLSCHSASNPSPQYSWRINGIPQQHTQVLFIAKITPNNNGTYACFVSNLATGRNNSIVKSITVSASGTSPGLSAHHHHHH
Protocol: as §2

B1: Neo201 (human IgG1) (antibody, V domains shown)
VH: QVQLVQSGAEVKKPGASVKVSCKASGYTFTDYAMHWVRQAPGQRLEWMGLISTYSGDTKYNQNFQGRVTMTVDKSASTAYMELSSLRSEDTAVYYCARGDYSGSRYWFAYWGQGTLVTVSS
VL: DIQMTQSPSSLSASVGDRVTITCQASENIYGALNWYQRKPGKSPKLLIYGASNLATGMPSRFSGSGSGTDYTFTISSLQPEDIATYYCQQVLSSPYTFGGGTKLEIKR
notes: based on US20130189268; also called TPP-1173; Neo201-hIgG1
[1]
  Kd: 23 nM
[2]
  binding result: no binding (tested: 1000 nM IgG)
[3]
  binding result: binds
[4]
  EC50: 1.35 nM
[5]
  EC50: 0.09 nM

Source: US20200181261A1 (Bayer, published 2020)
